From patent US9205137B2, “Maturation of gastrointestinal tract” (ANARA AB, priority 2010, dated 2015) come the findings set out here.

Common to all, as to assay type: in vivo, Rattus norvegicus
The test system of test [1] is suckling rats. Description: Papain vs microbial protease: macromolecule absorption (BSA, BIgG in plasma), Example 8. Particulars: in words (FIG. 14). The source says:
(§1) The litter size for each dam was limited to 12 or 13 pups, to reduce variability.
(§2) Suckling pups were divided into 3 groups depending on the treatments; microbial protease as a positive control, water as negative control and enzyme from papaya fruit (papain) (in total; protease=7, papain=8, control=7). The enzymes are available in the market in form of powders and were resolved in distilled water prior to stomach feeding during 14-16 d of age. The administered dose for each enzyme was 10000 USP/animal. The volume of administered enzymes and water (for control groups) was 0.01 ml/g b.wt. Prior to the feeding procedure, the pups were weighed. […] Three hours later, the pups were anaesthetized and organs were dissected out for analyses.

In test [2] the test system is suckling rats. Description: Papain vs microbial protease: body and organ weight, Example 8.
Text: as §1, §2

In test [3] the test system is suckling rats. Briefly: Papain vs microbial protease: intestinal disaccharidase activity in proximal SI, Example 8. Conditions: proximal part of SI, in words (FIG. 13).
Text: as §1, §2
The activities of the brush-border enzymes lactase, maltase and sucrase were analyzed in the proximal part of the SI in groups treated with papain and protease.

Where [4] appears, read: 10000 USP/animal, days 14-16, day 17.

Regarding bromelain, in test [1], the “intestinal macromolecular absorptive capacity” value is “remained in a higher level”.

B1: trypsin (protein, UniProt P00760 24-246, looked up)
Serine protease 1: IVGGYTCGANTVPYQVSLNSGYHFCGGSLINSQWVVSAAHCYKSGIQVRLGEDNINVVEGNEQFISASKSIVHPSYNSNTLNNDIMLIKLKSAASLNSRVASISLPTSCASAGTQCLISGWGNTKSSGTSYPDVLKCLKAPILSDSSCKSAYPGQITSNMFCAGYLEGGKDSCQGDSGGPVVCSGKLQGIVSWGSGCAQKNKPGVYTKVCNYVSWIKQTIASN
notes: protease that breaks down proteins at the basic amino acids
Turning to B1, the “intestinal macromolecular absorptive capacity” value in test [1] is “remained in a higher level”. In addition, the “weight of distal part of SI” value in test [2] (in words) is “increased weight”.

B2: papain (protein, UniProt P00784 134-345, looked up)
Papain: IPEYVDWRQKGAVTPVKNQGSCGSCWAFSAVVTIEGIIKIRTGNLNEYSEQELLDCDRRSYGCNGGYPWSALQLVAQYGIHYRNTYPYEGVQRYCRSREKGPYAAKTDGVRQVQPYNEGALLYSIANQPVSVVLEAAGKDFQLYRGGIFVGPCGNKVDHAVAAVGYGPNYILIKNSWGTGWGENGYIRIKRGTGNSYGVCGLYTSSFYPVKN
notes: enzyme from papaya fruit (papain)
As to B2, in test [3], the “activity of maltase compared to control” value is listed as “significantly increased” and the “activity of sucrase compared to control” value was “significantly increased”. Moreover, in test [1] (day 17, 3 hours after feeding), the “BSA concentration in rat plasma” value is given as “significantly decreased” and the “uptake of macromolecules, BIgG absorption” value is “significantly lower”. In test [2] (setting [4]), the Body weight is reported as 33.2 ± 5.00 gr, the Cecum is 3.42 ± 0.45 mg/g BW, the “Distal SI” value is 17.8 ± 2.5 mg/g BW and the Liver is 33.33 ± 1.52 mg/g BW. Moreover, in test [2] (setting [4]), the Pncrease was determined as 4.07 ± 0.46 mg/g BW, the “Proxima SI” value came out at 21.49 ± 1.57 mg/g BW, the SI length stood at 1.72 ± 0.17 cm/g BW and the Spleen came to 3.46 ± 0.44 mg/g BW. In test [2] (setting [4]), this molecule yielded a Stomach of 7.13 ± 0.45 mg/g BW and a Thymus of 4.65 ± 0.92 mg/g BW. For the same molecule, the “effect on body growth” value in test [2] (dose 10 000 USP, days 14 to 17, in words (FIG. 12)) was “No effect”.
